T1: 4H953-bN
T1 chain: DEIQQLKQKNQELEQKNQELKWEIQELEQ

T2: 4H462-bN
T2 chain: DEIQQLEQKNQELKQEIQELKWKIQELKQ

T3: 4H918-bN
T3 chain: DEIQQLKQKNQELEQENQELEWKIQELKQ

T4: 4H687-bN
T4 chain: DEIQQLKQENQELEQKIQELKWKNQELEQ

T5: 4H883-bN
T5 chain: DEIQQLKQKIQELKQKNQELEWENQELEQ

T6: 4H797-bN
T6 chain: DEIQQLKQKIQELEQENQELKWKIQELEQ

T7: 4H3843-bN
T7 chain: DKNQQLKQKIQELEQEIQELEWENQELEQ

T8: 4H568-bN
T8 chain: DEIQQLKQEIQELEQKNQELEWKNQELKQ

T9: 4H607-bN
T9 chain: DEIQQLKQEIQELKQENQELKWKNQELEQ

T10: 4H4001-bN
T10 chain: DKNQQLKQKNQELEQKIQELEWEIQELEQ

T11: 4H72-bN
T11 chain: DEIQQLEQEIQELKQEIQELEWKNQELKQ

T12: 4H967-bN
T12 chain: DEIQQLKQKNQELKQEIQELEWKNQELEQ

T13: 4H3782-bN
T13 chain: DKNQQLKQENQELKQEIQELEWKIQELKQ

T14: 4H908-bN
T14 chain: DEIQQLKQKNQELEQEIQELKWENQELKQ

T15: 4H3855-bN
T15 chain: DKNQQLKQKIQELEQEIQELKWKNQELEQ

T16: 4H717-bN
T16 chain: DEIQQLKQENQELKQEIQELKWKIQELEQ

T17: 4H454-bN
T17 chain: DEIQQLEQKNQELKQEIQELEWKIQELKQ

T18: 4H754-bN
T18 chain: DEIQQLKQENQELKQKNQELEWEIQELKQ

T19: O9
T19 chain: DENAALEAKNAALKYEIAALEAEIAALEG


What was measured:
Assay in all cases: two-hybrid library CCNG1;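 also: natural log of median RNA to DNA barcode read ratio; higher means stronger binding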
4H953-bN = target: T1, 4H953-bN
4H462-bN = target: T2, 4H462-bN
4H918-bN = target: T3, 4H918-bN
4H687-bN = target: T4, 4H687-bN
4H883-bN = target: T5, 4H883-bN
4H797-bN = target: T6, 4H797-bN
4H3843-bN = target: T7, 4H3843-bN
4H568-bN = target: T8, 4H568-bN
4H607-bN = target: T9, 4H607-bN
4H4001-bN = target: T10, 4H4001-bN
4H72-bN = target: T11, 4H72-bN
4H967-bN = target: T12, 4H967-bN
4H3782-bN = target: T13, 4H3782-bN
4H908-bN = target: T14, 4H908-bN
4H3855-bN = target: T15, 4H3855-bN
4H717-bN = target: T16, 4H717-bN
4H454-bN = target: T17, 4H454-bN
4H754-bN = target: T18, 4H754-bN
O9 = target: T19, O9

interaction score (4H953-bN) | interaction score (4H462-bN) | interaction score (4H918-bN) | interaction score (4H687-bN) | interaction score (4H883-bN) | interaction score (4H797-bN) | interaction score (4H3843-bN) | interaction score (4H568-bN) | interaction score (4H607-bN) | interaction score (4H4001-bN) | interaction score (4H72-bN) | interaction score (4H967-bN) | interaction score (4H3782-bN) | interaction score (4H908-bN) | interaction score (4H3855-bN) | interaction score (4H717-bN) | interaction score (4H454-bN) | interaction score (4H754-bN) | interaction score (O9) | Binder
-2.09 | -0.816 | -1.05 | -1.56 | -0.63 | -0.609 | -1.58 | -0.869 | -1.31 | -1.28 | -1.71 | -1.23 | – | – | – | – | – | – | – | DKNQQLKQKIQELEQEIQELEWENQELEQ [4H3843-bN]
-0.576 | 0.194 | -0.56 | 0.28 | -1.27 | 0.0484 | 0.479 | -0.456 | -0.461 | 0.0598 | -0.393 | -0.314 | -1.91 | 0.273 | -1.08 | -0.43 | -0.771 | 0.109 | – | DKNQQLKQENQELKQEIQELEWKIQELKQ [4H3782-bN]
– | – | – | – | – | – | – | – | – | – | – | – | – | – | – | – | – | – | -2.24 | DENAALEAKNAALKYEIAALEAEIAALEG [O9]
